According to the supplement of paper PMC10126150:
± gives the standard deviation of the averaged measurements.

Test system: ATP
Assay: switch fluorescence ratio, 500 uM ATP over buffer (Cy3 cluster intensity, sum of 5 cycles each) (fold (ratio)); higher = stronger signal-on switching upon ATP binding; sequences stand for … in TCGTCGGCAGCGTCAGATGTGTATAAGAGACAGTTTTTTTTTTTTTTTTTTTTTTTTT…TC
Details: aptamer strand: ATP DNA aptamer (quencher-CACCTGGGGGAGTATTGCGGAGGAAGG + anchor), 100 nM annealed; ATP concentration: 500 uM
How it was run: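 Clusters carrying Cy3-labelled switching strands on a modified Illumina MiSeq flow-cell were annealed to 100 nM quencher-labelled ATP aptamer and imaged in selection buffer. They were imaged again after 15 min with 500 uM ATP at 22 °C, over five buffer/ATP cycles with NaOH stripping and re-annealing in between. For each cluster, the fluorescence ratio is the summed Cy3 intensity of the target cycles divided by that of the buffer cycles, averaged per switch-domain sequence. Clusters outside 100-1000 RFU were left out.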
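Also: ATP exposure 15 min at 22 °C before imaging.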

Point of comparison: ACCTTTTACG, switch fluorescence ratio 1.15 ± 0.072. Against it:
- TCGGAATGGG — lower, 0.975 ± 0.017
- TATTGGTATG — lower, 1 ± 0.017
- CACGGGGGAG — lower, 1.005 ± 0.0096
- TTAGTCCCGC — lower, 1.066 ± 0.0024
- AATAAGGGAT — lower, 1.01 ± 0.045
- ATGTATAGGG — lower, 1 ± 0.0019
- TGTCTGGGGT — lower, 1 ± 0.019
- ATTGGGATT — lower, 0.966 ± 0.046
- AGGTTTTTGT — lower, 0.982 ± 0.036
- CCGAGAGGGT — within error, 1.06 ± 0.069
- TAGGCGGGGT — lower, 0.977 ± 0.05
- TTATTGGTAT — lower, 0.998 ± 0.018
- TCAGGTTTCC — lower, 1.0249 ± 0.00069
- GTTGATTTGC — within error, 1.02 ± 0.089
- ACAGACTGAT — within error, 1.1 ± 0.076
- CTTAAAGTTT — lower, 0.983 ± 0.041
- TGAGTGGGG — lower, 0.975 ± 0.05
- ATAGGTCAGG — lower, 1.026 ± 0.0022
- AAGTTGATGC — lower, 1.011 ± 0.0027
- ATTTTAAATT — lower, 1 ± 0.019
- TTCTTAAACA — lower, 1.02 ± 0.013
- ATAGGGGGTG — lower, 1.03 ± 0.034
- AAAAACATGG — lower, 1.012 ± 0.0096
- AGGGTACTTA — within error, 1.05 ± 0.028
- GGTTCGTGGG — lower, 1.01 ± 0.02
- TATGGAGGGG — lower, 0.991 ± 0.032
- CAGTGGGGGG — lower, 1.01 ± 0.039
- ACCGCGAGGA — within error, 1.54 ± 0.57
- TTAGAGGGAG — lower, 1.03 ± 0.042
- TTTTGAGTAC — lower, 1.01 ± 0.042
- AGGAGGTCGG — lower, 0.991 ± 0.01
- TATTTAGGGC — within error, 1.04 ± 0.052
- TTAAGTGCGG — lower, 1 ± 0.02
- CGGGAGTCAG — lower, 1 ± 0.021
- CTTGATACTC — within error, 1.18 ± 0.032
- TTCAATTGTG — lower, 0.9958 ± 0.0053
- TTTACGGATA — higher, 1.349 ± 0.013
- TGGTATCTTA — lower, 1.026 ± 0.0098
- TGCAATGTTT — within error, 1.38 ± 0.52
- ATAGCAGATG — lower, 0.991 ± 0.046
- GCATGTATAT — lower, 0.978 ± 0.045
- GCGTTAAAAG — lower, 1.03 ± 0.02
- TCTGTAATTT — within error, 1.41 ± 0.59
- AGTGTTTTTT — lower, 1.01 ± 0.046
- AAGTGAAGTT — lower, 1.002 ± 0.004
- CGAATGGTAA — within error, 1.05 ± 0.051
- ATATCCGTTT — lower, 0.974 ± 0.066
- TAGTGTGTAT — lower, 0.9516 ± 0.0088
- TGATTGGGAC — lower, 0.9673 ± 0.0074
- AAGAGGTGCA — lower, 0.989 ± 0.034
- TAGAGTATCT — lower, 0.999 ± 0.027
- GTTCTCATTT — lower, 0.995 ± 0.025
- TGCTTTTGTC — within error, 1.01 ± 0.078
- TGCCGGAATA — higher, 1.38 ± 0.041
- CGGTGGCAGC — lower, 0.983 ± 0.038
- AAGGGTTGG — lower, 0.99 ± 0.015
- TTATTAAAGG — within error, 1.02 ± 0.071
- TATGGACTAG — lower, 1.01 ± 0.025
- TAAAAGCCTG — lower, 1.02 ± 0.052
- CTAGTCACCG — lower, 0.999 ± 0.019
- GGGTTGTTTG — lower, 0.992 ± 0.036
- TTGCGAGCTT — lower, 0.986 ± 0.061
- GGCAGGGGGC — lower, 1.02 ± 0.031
- CATTGGGGCG — lower, 0.926 ± 0.019
- CCGTCGTACG — within error, 1.06 ± 0.11
- TTCGGCGGCA — lower, 1.02 ± 0.036
- GAGGGAGTAG — lower, 0.9962 ± 0.0012
- TTTCTTAATT — within error, 1.4 ± 0.59
- CAGGTCCGCT — within error, 1.12 ± 0.036
- TGTATCGGGT — lower, 0.979 ± 0.035
- TTGGGGTCCA — lower, 0.977 ± 0.015
- CTTTATTTTC — lower, 1.03 ± 0.039
- AGGTTAAAAC — within error, 1.2 ± 0.19
- ATGAGGGATT — lower, 0.965 ± 0.011
- TTTCGGGGGA — lower, 1.01 ± 0.032
- CGTTTGAAGC — lower, 0.978 ± 0.059
- TCGGTAGGGA — lower, 0.96 ± 0.021
- TTTTACACCT — within error, 1.23 ± 0.2
- TAGAATATAG — lower, 0.991 ± 0.0011
- TAAAAGGGAG — within error, 1.03 ± 0.058
- ATAAGGGTAG — lower, 1.028 ± 0.0054
- ATTATAGGG — lower, 1 ± 0.015
- CAGATTATTT — lower, 0.99 ± 0.015
- GCGGTCGGTA — lower, 1.03 ± 0.038
- AGATGGTTGC — lower, 0.958 ± 0.021
- CAATAGTGTG — lower, 0.973 ± 0.017
- GTAGAGGGGA — lower, 1.02 ± 0.016
- AAGTGGGCCC — lower, 0.983 ± 0.013
- GAGGAGGATA — lower, 0.953 ± 0.024
- TCCTTGCTTT — within error, 1.1 ± 0.025
- ACAGGGTTCT — lower, 0.987 ± 0.025
- GTCTTTAGGG — lower, 0.9755 ± 0.0055
- TGAATGAGGG — lower, 0.993 ± 0.029
- GCCGGGGACA — within error, 1.03 ± 0.053
- AAGGTTGGG — lower, 0.989 ± 0.014
- ACGGGAGAGG — lower, 1.02 ± 0.035
- CCGAGGTATC — within error, 3.23 ± 2.1
- TTCCGTCTAT — within error, 1.08 ± 0.086
- ACGAGACAGC — within error, 1.191 ± 3.6e-05
- TAGAAATCGG — lower, 1.02 ± 0.015
- GGTGGGTGCT — lower, 0.995 ± 0.052
- AAGTGGGGAG — lower, 1 ± 0.024
- GGTTGGGCTT — lower, 0.979 ± 0.012
- TACGTGATTT — within error, 1.14 ± 0.093
- TTCATGTTGT — lower, 0.984 ± 0.027
- GGAGAATGCC — within error, 1.04 ± 0.053
- TTTCCGTTTT — lower, 1.01 ± 0.038
- TAAGGCTTCG — lower, 0.96 ± 0.039
- TTTCCATTGG — lower, 1.03 ± 0.015
- TTAGAAAAAG — lower, 0.9811 ± 0.0052
- TAAGCAGTGG — lower, 1.02 ± 0.022
- GGGGGTCGTT — lower, 1.02 ± 0.051
- CGGGTGTGGG — lower, 1.009 ± 0.0012
- AACAGCTGTT — lower, 0.972 ± 0.035
- CTGGTGCATT — within error, 1.21 ± 0.11
- AGAGTGAGTT — lower, 0.9533 ± 0.0045
- TTTAGAGTTT — lower, 0.997 ± 0.032
- TCCTCGGGGC — higher, 1.6 ± 0.095
- AAAGAAACGG — within error, 1.1 ± 0.035
- GCCGTGGGAG — lower, 0.986 ± 0.052
- GGTATAGAGC — lower, 1.02 ± 0.05
- TTTCAATGTA — lower, 1.01 ± 0.039
- GGTTTTTTGG — lower, 0.98 ± 0.021
- ACTCGATTTT — lower, 1.02 ± 0.033
- CCAGGGAGGG — within error, 1.06 ± 0.051
- GGACGTGGTA — lower, 1.03 ± 0.028
- TATTTGGTTA — lower, 1.024 ± 0.006
- CGACACCGTT — within error, 1.03 ± 0.056
- ATGGGGGGTG — lower, 1 ± 0.035
- GCAATTAATG — lower, 1 ± 0.015
- ATGTTTGGGG — within error, 1.03 ± 0.084
- TTGGCACGTG — lower, 0.985 ± 0.061
- TTCTGCTTTC — within error, 1.11 ± 0.03
- TTGCACCGGT — lower, 1.034 ± 0.0055
- TTGGTGAGGG — lower, 0.978 ± 0.022
- CGCGTTAGGG — lower, 1.03 ± 0.011
- ATCAGGGCT — lower, 1.01 ± 0.028
- GGTTTGCAGG — lower, 0.967 ± 0.05
- AGGTTCGTAT — lower, 1.01 ± 0.03
- GCCGAGGGGT — lower, 1.037 ± 0.008
- ACGTCAAAGG — within error, 1.37 ± 0.51
- ATGATTGTCG — lower, 0.994 ± 0.017
- TTCTGTGCGG — lower, 0.978 ± 0.029
- TGCAAAGGTG — higher, 1.34 ± 0.094
- GTTTGGGAAC — lower, 1.02 ± 0.019
- ATGGCAGGG — lower, 1.016 ± 0.0061
- GGAGATGCAG — lower, 0.969 ± 0.046
- GATATGGGGA — lower, 0.994 ± 0.044
- TTGCTGTTGT — lower, 1.01 ± 0.022
- TTGGGAAATA — lower, 1.01 ± 0.024
- GAGGGCTTCG — within error, 1.02 ± 0.1
- AGGGGTGCCG — lower, 1.05 ± 0.026
- CGGGGGTTAA — lower, 0.9908 ± 0.0021
- GATGTATGGG — lower, 0.984 ± 0.015
- GGGACGGGTA — lower, 1.008 ± 0.0015
- CTGTCTGGTG — lower, 1.025 ± 0.0087
